# Data as given in patent US20080044424.
# Target: T1, human PAR1 (AA #27-102)/thioredoxin fusion protein (UniProt P25116)
# T1 sequence: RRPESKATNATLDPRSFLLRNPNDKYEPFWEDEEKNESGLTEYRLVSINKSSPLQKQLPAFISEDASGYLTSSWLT
substance,measurement,value
thrombin,proteolytic cleavage,The PAR1/thioredoxin was cleaved to completion with thrombin
